Target: T1, IFITM3-wt fused to SCFP or SYFP (interferon-induced transmembrane protein 3) (UniProt Q01628 1-133)
T1 construct: interferon-induced transmembrane protein 3 (IFITM3), wild type; One molecule stands for both FRET copies (SCFP3A fusion and SYFP2 fusion); also called SxFP-IFITM3; IFTIM3; source: 293T, transiently transfected, in cells; not shown: SCFP3A or SYFP2, N-terminal, kept
Assay: FRET or BRET; FACS-FRET in 293T cells at 48 h post transfection with titrated amounts of plasmids, total DNA kept constant with empty pCAGGS (Figure 2D)
Settings: partners not purified

T1 sequence (Q01628 whole entry, the tested form may be a part): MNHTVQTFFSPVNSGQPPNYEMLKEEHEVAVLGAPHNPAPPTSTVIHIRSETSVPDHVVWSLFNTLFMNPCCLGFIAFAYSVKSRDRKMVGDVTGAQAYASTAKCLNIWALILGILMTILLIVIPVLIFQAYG

B1: IFITM1 fused to SCFP or SYFP (interferon-induced transmembrane protein 1) (natural protein, UniProt P13164 1-125, looked up)
chain: MHKEEHEVAVLGPPPSTILPRSTVINIHSETSVPDHVVWSLFNTLFLNWCCLGFIAFAYSVKSRDRKMVGDVTGAQAYASTAKCLNIWALILGILMTIGFILLLVFGSVTVYHIMLQIIQEKRGY
notes: interferon-induced transmembrane protein 1 (IFITM1); One molecule stands for both FRET copies: one carries SCFP3A (donor), the other SYFP2 (acceptor); also called SCFP3A-IFITM1; SYFP2-IFITM1; source: 293T, transiently transfected, in cells; not shown: SCFP3A or SYFP2, N-terminal, kept
- percent of FRET-positive cells: ~20%

— PMC6719045, “Analysis of IFITM-IFITM Interactions by a Flow Cytometry-Based FRET Assay” (International Journal of Molecular Sciences, 2019)
